Data taken from patent US20230220057A1 (STAIDSON BEIJING BIOPHARMACEUTICALS, published 2023).

Target: recombinantly produced human-NGF (human, UniProt P01138 122-241, limits assumed)
Experiment: ELISA, human NGF coated, IgG titrated
Description: NGF binding ELISA assay: In human NGF binding ELISA, Corning 3366 high binding 96 well plates were coated with recombinantly produced human-NGF at 1 μg per ml, 50 μl/well in 1×PBS, and incubated overnight at 4° C. The plates were washed and blocked with 250 μl of 1×PBS/1% BSA at least 30 minutes at room temperature. 50 μl of culture supernatants, after 1:1 diluted by the PBS/BSA diluent, or the purified antibodies diluted serially from a certain concentration with the diluent, were added per well, and incubated at 37° C. for 2 hours. After washing, a secondary antibody, goat anti-human IgG Fc AP (Southern biotech) was applied at a dilution of 1:3000 in PBS/BSA. The plates were incubated for 1 hour at RT and washed. After adding the PNPP substrate, the ODs at 405 nm were read.
NGF binding ELISA assay: NGF binding ELISA assay was performed as described in Example 1.

Sequence of recombinantly produced human-NGF (P01138 122-241 limits assumed): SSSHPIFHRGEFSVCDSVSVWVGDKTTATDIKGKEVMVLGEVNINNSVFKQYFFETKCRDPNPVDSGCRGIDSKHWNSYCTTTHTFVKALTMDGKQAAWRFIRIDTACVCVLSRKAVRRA

Row | Binder | EC50 [ng/mL]
1 | Ab1 (antibody, human IgG1, V domains shown, Lead antibody; also called Abl) VH: EVQLVQSGAEVKKPGATVKISCKVSGYTFITYWISWVQQAPGKGLEWMGAIDPSDSDARYSPSFQGRVTITADTSTDTAYMELSSLRSEDTAVYYCAKSDPGYSGYSLLYGFDSWGQGTLVTVSS VL: DIVMTQTPLSSPVTLGQPASISCRSSQSLVQRNGNTYLSWLQQRPGQPPRLLIYQVSNRYSGVPDRFSGSGAGTDFTLKISRVEAEDVGVYYCGQGAHLPLTFGQGTKVEIK | 0.0185
2 | Ab12 (antibody, human IgG1, V domains shown) VH: EVQLVQSGAEVKKPGATVKISCKVSGYSFITYWISWVQQAPGKGLEWMGAIDPSDSDARYSPSFQGRVTITADTSTDTAYMELSSLRSEDTAVYYCAKSDPGYSGYSLLYGFDSWGQGTLVTVSS VL: DIVMTQTPLSSPVTLGQPASISCRSSQSLVQRNGNTYLSWYQQRPGQPPRLLIYQVSNRYSGVPDRFSGSGAGTDFTLKISRVEAEDVGVYYCGQGAHLPLTFGQGTKVEIK | 0.0365
3 | Ab13 (antibody, human IgG1, V domains shown) VH: EVQLVQSGAEVKKPGATVKISCKVSGYSFITYWISWVQQAPGKGLEWMGAIDPSDSDARYSPSFQGRVTITADTSTDTAYMELSSLRSEDTAVYYCAKSDPGYSGYSLLYGFDSWGQGTLVTVSS VL: DVVMTQSPLSLPVTLGQPASISCRSSQSLVQRNGNTYLSWFQQRPGQSPRLLIYQVSNRYSGVPDRFSGSGSGTDFTLKISRVEAEDVGVYYCGQGAHLPLTFGQGTKVEIK | 0.043
4 | Ab3 (antibody, human IgG1, V domains shown) VH: EVQLVQSGAEVKKPGATVKISCKVSGYTFITYWISWVQQAPGKGLEWMGAIDPSDSDARYSPSFQGRVTITADTSTDTAYMELSSLRSEDTAVYYCAKSDPGYSGYSLLYGFDSWGQGTLVTVSS VL: DVVMTQSPLSLPVTLGQPASISCRSSQSLVQRNGNTYLSWFQQRPGQSPRLLIYQVSNRYSGVPDRFSGSGSGTDFTLKISRVEAEDVGVYYCGQGAHLPLTFGQGTKVEIK | 0.017
5 | Ab7 (antibody, human IgG1, V domains shown) VH: EVQLVQSGAEVKKPGATVKISCKVSGYTFITYWISWVQQAPGKGLEWMGAIDPSDSDARYSPSFQGRVTITADTSTDTAYMELSSLRSEDTAVYYCAKSDPGYSGYSLLYGFDSWGQGTLVTVSS VL: DIVMTQSPLSLPVTLGQPASISCRSSQSLVQRNGNTYLSWFQQRPGQSPRLLIYQVSNRYSGVPDRFSGSGSGTDFTLKISRVEAEDVGVYYCGQGAHLPLTFGQGTKVEIK | 0.00988
6 | Ab8 (antibody, human IgG1, V domains shown) VH: EVQLVQSGAEVKKPGATVKISCKVSGYTFITYWISWVQQAPGKGLEWMGAIDPSDSDARYSPSFQGRVTITADTSTDTAYMELSSLRSEDTAVYYCAKSDPGYSGYSLLYGFDSWGQGTLVTVSS VL: DIVMTQSPLSLPVTLGQPASISCRSSQSLVQRNGNTYLSWYQQRPGQSPRLLIYQVSNRYSGVPDRFSGSGSGTDFTLKISRVEAEDVGVYYCGQGAHLPLTFGQGTKVEIK | 0.0205
7 | Ab2 (antibody, human IgG1, V domains shown) VH: EVQLVQSGAEVKKPGATVKISCKVSGYTFITYWISWVQQAPGKGLEWMGAIDPSDSDARYSPSFQGRVTITADTSTDTAYMELSSLRSEDTAVYYCAKSDPGYSGYSLLYGFDSWGQGTLVTVSS VL: DIVMTQTPLSSPVTLGQPASISCRSSQSLVQRNGNTYLSWYQQRPGQPPRLLIYQVSNRYSGVPDRFSGSGAGTDFTLKISRVEAEDVGVYYCGQGAHLPLTFGQGTKVEIK | 0.0197
8 | Ab14 (antibody, human IgG1, V domains shown) VH: EVQLVQSGAEVKKPGATVKISCKVSGYSFITYWISWVQQAPGKGLEWMGAIDPSDSDARYSPSFQGRVTITADTSTDTAYMELSSLRSEDTAVYYCAKSDPGYSGYSLLYGFDSWGQGTLVTVSS VL: DVVMTQSPLSLPVTLGQPASISCRSSQSLVQRNGNTYLSWYQQRPGQSPRLLIYQVSNRYSGVPDRFSGSGSGTDFTLKISRVEAEDVGVYYCGQGAHLPLTFGQGTKVEIK | 0.0351
9 | Ab11 (antibody, human IgG1, V domains shown) VH: EVQLVQSGAEVKKPGATVKISCKVSGYSFITYWISWVQQAPGKGLEWMGAIDPSDSDARYSPSFQGRVTITADTSTDTAYMELSSLRSEDTAVYYCAKSDPGYSGYSLLYGFDSWGQGTLVTVSS VL: DIVMTQTPLSSPVTLGQPASISCRSSQSLVQRNGNTYLSWLQQRPGQPPRLLIYQVSNRYSGVPDRFSGSGAGTDFTLKISRVEAEDVGVYYCGQGAHLPLTFGQGTKVEIK | 0.032
10 | Ab9 (antibody, human IgG1, V domains shown) VH: EVQLVQSGAEVKKPGATVKISCKVSGYTFITYWISWVQQAPGKGLEWMGAIDPSDSDARYSPSFQGRVTITADTSTDTAYMELSSLRSEDTAVYYCAKSDPGYSGYSLLYGFDSWGQGTLVTVSS VL: DIVMTQSPLSLPVTLGQPASISCRSSQSLVQRNGNTYLSWYQQRPGQPPRLLIYQVSNRYSGVPDRFSGSGSGTDFTLKISRVEAEDVGVYYCGQGAHLPLTFGQGTKVEIK | 0.0876
11 | Ab5 (antibody, human IgG1, V domains shown) VH: EVQLVQSGAEVKKPGATVKISCKVSGYTFITYWISWVQQAPGKGLEWMGAIDPSDSDARYSPSFQGRVTITADTSTDTAYMELSSLRSEDTAVYYCAKSDPGYSGYSLLYGFDSWGQGTLVTVSS VL: DVVMTQSPLSLPVTLGQPASISCRSSQSLVQRNGNTYLSWYQQRPGQPPRLLIYQVSNRYSGVPDRFSGSGSGTDFTLKISRVEAEDVGVYYCGQGAHLPLTFGQGTKVEIK | 0.0139

Other lines, results leading:

Row | EC50 [ng/mL] | Binder
12 | 0.0399 | Ab24 (antibody, human IgG1, V domains shown) VH: EVQLVQSGAEVKKPGATVKISCKVSGYSFITYWISWVQQAPGKGLEWMGAIDPSDSDARYSPSFQGRVTITADKSTDTAYMELSSLRSEDTAVYYCAKSDPGYSGYSLLYGFDSWGQGTLVTVSS VL: DVVMTQSPLSLPVTLGQPASISCRSSQSLVQRNGNTYLSWYQQRPGQSPRLLIYQVSNRYSGVPDRFSGSGSGTDFTLKISRVEAEDVGVYYCGQGAHLPLTFGQGTKVEIK
13 | 0.046 | Ab15 (antibody, human IgG1, V domains shown) VH: EVQLVQSGAEVKKPGATVKISCKVSGYSFITYWISWVQQAPGKGLEWMGAIDPSDSDARYSPSFQGRVTITADTSTDTAYMELSSLRSEDTAVYYCAKSDPGYSGYSLLYGFDSWGQGTLVTVSS VL: DVVMTQSPLSLPVTLGQPASISCRSSQSLVQRNGNTYLSWYQQRPGQPPRLLIYQVSNRYSGVPDRFSGSGSGTDFTLKISRVEAEDVGVYYCGQGAHLPLTFGQGTKVEIK
14 | 0.0403 | Ab21 (antibody, human IgG1, V domains shown) VH: EVQLVQSGAEVKKPGATVKISCKVSGYSFITYWISWVQQAPGKGLEWMGAIDPSDSDARYSPSFQGRVTITADKSTDTAYMELSSLRSEDTAVYYCAKSDPGYSGYSLLYGFDSWGQGTLVTVSS VL: DIVMTQTPLSSPVTLGQPASISCRSSQSLVQRNGNTYLSWLQQRPGQPPRLLIYQVSNRYSGVPDRFSGSGAGTDFTLKISRVEAEDVGVYYCGQGAHLPLTFGQGTKVEIK
15 | 0.0215 | Ab20 (antibody, human IgG1, V domains shown) VH: EVQLVQSGAEVKKPGATVKISCKVSGYSFITYWISWVQQAPGKGLEWMGAIDPSDSDARYSPSFQGRVTITADTSTDTAYMELSSLRSEDTAVYYCAKSDPGYSGYSLLYGFDSWGQGTLVTVSS VL: DIVMTQSPLSLPVTLGQPASISCRSSQSLVQRNGNTYLSWFQQRPGQPPRLLIYQVSNRYSGVPDRFSGSGSGTDFTLKISRVEAEDVGVYYCGQGAHLPLTFGQGTKVEIK
16 | 0.0382 | Ab22 (antibody, human IgG1, V domains shown) VH: EVQLVQSGAEVKKPGATVKISCKVSGYSFITYWISWVQQAPGKGLEWMGAIDPSDSDARYSPSFQGRVTITADKSTDTAYMELSSLRSEDTAVYYCAKSDPGYSGYSLLYGFDSWGQGTLVTVSS VL: DIVMTQTPLSSPVTLGQPASISCRSSQSLVQRNGNTYLSWYQQRPGQPPRLLIYQVSNRYSGVPDRFSGSGAGTDFTLKISRVEAEDVGVYYCGQGAHLPLTFGQGTKVEIK
17 | 0.0324 | Ab19 (antibody, human IgG1, V domains shown) VH: EVQLVQSGAEVKKPGATVKISCKVSGYSFITYWISWVQQAPGKGLEWMGAIDPSDSDARYSPSFQGRVTITADTSTDTAYMELSSLRSEDTAVYYCAKSDPGYSGYSLLYGFDSWGQGTLVTVSS VL: DIVMTQSPLSLPVTLGQPASISCRSSQSLVQRNGNTYLSWYQQRPGQPPRLLIYQVSNRYSGVPDRFSGSGSGTDFTLKISRVEAEDVGVYYCGQGAHLPLTFGQGTKVEIK
18 | 0.0405 | Ab23 (antibody, human IgG1, V domains shown) VH: EVQLVQSGAEVKKPGATVKISCKVSGYSFITYWISWVQQAPGKGLEWMGAIDPSDSDARYSPSFQGRVTITADKSTDTAYMELSSLRSEDTAVYYCAKSDPGYSGYSLLYGFDSWGQGTLVTVSS VL: DVVMTQSPLSLPVTLGQPASISCRSSQSLVQRNGNTYLSWFQQRPGQSPRLLIYQVSNRYSGVPDRFSGSGSGTDFTLKISRVEAEDVGVYYCGQGAHLPLTFGQGTKVEIK
19 | 0.016 | Ab17 (antibody, human IgG1, V domains shown) VH: EVQLVQSGAEVKKPGATVKISCKVSGYSFITYWISWVQQAPGKGLEWMGAIDPSDSDARYSPSFQGRVTITADTSTDTAYMELSSLRSEDTAVYYCAKSDPGYSGYSLLYGFDSWGQGTLVTVSS VL: DIVMTQSPLSLPVTLGQPASISCRSSQSLVQRNGNTYLSWFQQRPGQSPRLLIYQVSNRYSGVPDRFSGSGSGTDFTLKISRVEAEDVGVYYCGQGAHLPLTFGQGTKVEIK
20 | 0.0271 | Ab18 (antibody, human IgG1, V domains shown) VH: EVQLVQSGAEVKKPGATVKISCKVSGYSFITYWISWVQQAPGKGLEWMGAIDPSDSDARYSPSFQGRVTITADTSTDTAYMELSSLRSEDTAVYYCAKSDPGYSGYSLLYGFDSWGQGTLVTVSS VL: DIVMTQSPLSLPVTLGQPASISCRSSQSLVQRNGNTYLSWYQQRPGQSPRLLIYQVSNRYSGVPDRFSGSGSGTDFTLKISRVEAEDVGVYYCGQGAHLPLTFGQGTKVEIK
